Test results from US12466859B2, “Desmoglein 2 (DSG2) binding proteins and uses therefor” (UNIVERSITY OF WASHINGTON THROUGH ITS CENTER FOR …, priority 2013, dated 2025).
Like-named read-outs stand apart in the source and are kept apart here.

What was measured:
soluble recombinant DSG2 = target: T1, soluble recombinant DSG2 (Homo sapiens, UniProt Q14126); experiment: Western blot of dimeric Ad3 fiber knob mutants with soluble recombinant DSG2 as probe; format: binding; details: dimerized knob mutants compared to JO-1
T1 construct: Western blot using soluble recombinant DSG2 as a probe; purchased Leinco Technologies, Inc. (St. Louis, MO)
T1 sequence (Q14126 50-609 limits assumed): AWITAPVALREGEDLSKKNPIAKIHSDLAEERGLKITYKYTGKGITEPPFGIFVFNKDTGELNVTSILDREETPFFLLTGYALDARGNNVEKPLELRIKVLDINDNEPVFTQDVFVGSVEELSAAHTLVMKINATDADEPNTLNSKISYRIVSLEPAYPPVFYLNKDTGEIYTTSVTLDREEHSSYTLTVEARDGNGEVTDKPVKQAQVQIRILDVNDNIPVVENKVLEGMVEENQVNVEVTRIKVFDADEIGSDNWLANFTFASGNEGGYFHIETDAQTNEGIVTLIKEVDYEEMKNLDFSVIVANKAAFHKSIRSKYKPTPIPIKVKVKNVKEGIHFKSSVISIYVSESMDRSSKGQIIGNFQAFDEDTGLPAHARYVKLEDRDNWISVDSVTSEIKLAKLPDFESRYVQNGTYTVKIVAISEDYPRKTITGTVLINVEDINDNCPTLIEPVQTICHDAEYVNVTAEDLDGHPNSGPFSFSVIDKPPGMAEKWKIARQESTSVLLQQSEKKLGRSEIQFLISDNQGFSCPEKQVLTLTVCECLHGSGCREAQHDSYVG
Source text: FIG. 1A-1F. Residues found to be critically involved in binding to DSG2. FIG. 1A) Shown are the amino acid sequences of the Ad3 and Ad14p1 fiber knob. Beta sheets present in the Ad3 knob (PDB accession number 1H7Z_A) and Ad14 knob (PDB: 3F0Y_A) are indicated by lines. Black arrows indicate residues within the Ad3 fiber knob which, when mutated individually, ablate or reduce binding to DSG2. […] FIG. 1B) Schematic structure of dimeric Ad3 fiber knob mutants. The fiber knob domain and one shaft motif was fused through a flexible linker to a homodimerizing K-coil domain (41). The proteins are self-dimerizing and can be purified by His-Ni-NTA affinity chromatography. FIG. 1C-FIG. 1F) Analysis of binding of dimeric Ad3 fiber knob mutants to soluble DSG2. FIG. 1C and FIG. 1D) Coomassie staining. 10 μg of purified Ad3 fiber knob (unboiled) were loaded per lane. Trimeric forms of the fiber knobs are indicated by an arrow. The gel contained SDS and the loading buffer containing DTT, which caused the disassembly of dimers of trimeric fiber knobs as previously reported (41). FIG. 1E and FIG. 1F): Western blot using soluble recombinant DSG2 as a probe, followed by anti-DSG2-mAb and anti-mouse IgG-HRP. For comparison, JO-1 (0.5 μg/lane) is shown. The Western blots were scanned and signals were quantified.
Western Blot: Mini-PROTEAN precast gels (BIO-RAD, Hercules, CA) with 4-15% gradient polyacrylamide were used. A total of 1 μg protein mixed with 2× loading buffer (10 mM Tris-HCl, pH6.8, 200 mM DTT, 4% SDS, 20% glycerol, 0.2% bromophenol blue) was loaded per lane. Samples were either boiled (B) for 5 min or loaded unboiled (UB). The following running buffer was used: 25 mM Tris, pH8.3, 0.192 M glycine, 0.1% SDS. After electrophoresis, proteins were transferred to nitrocellulose and incubated with recombinant human DSG2 protein and anti-DSG2 antibodies as described previously (42). The Western blots were scanned and quantified using the ImageJ 1.32 software (National Institutes of Health, Bethesda, MD). JO-1 band intensity was set as 100%. […]

Ad3-GFP virus [1] = experiment: Competition of Ad3-GFP virus infection on HeLa cells; format: cell-based, adenovirus serotype 3
Description: (§1) FIG. 3A-3D. Competition of Ad3 virus by dimerized Ad3 knob mutants. FIG. 3A) Relative attachment of ^3H-labeled Ad3 virus in the presence of dimeric fiber knob mutants. 1.8×10^5 HeLa cells were incubated with Ad3 knob mutants at a concentration of 2.5 and 100 μg/ml on ice for 1 hour. Then 400 pfu/cell of ^3H-Ad3 virus was added on ice for another hour. Unbound virus particles were washed away. Attachment of virus particles incubated with PBS was taken as 100%. N=3. FIG. 3B1-3B2) Competition of Ad3-GFP virus infection on HeLa cells. 1.5×10^5 HeLa cells were seeded into 24 well plates. Cells were incubated with the Ad3 knob mutants at increasing concentrations for one hour at room temperature. 100 pfu/cell of Ad3-GFP virus were then added and GFP expression was analyzed 18 hours later by flow cytometry. FIG. 3B1) percentage of GFP positive cells. FIG. 3B2) mean fluorescence intensity. N=3. The standard deviation was less than 10%. FIG. 3C) Relative attachment of ^3H-labeled Ad3 virus in the presence of dimeric fiber knob mutants with multiple mutations. The study was performed as described in FIG. 3B) The standard deviation was less than 10%. FIG. 3D) Competition of Ad3-GFP virus infection on HeLa cells. The study was performed as described in FIG. 3C) The standard deviation was less than 10%.
FIG. 9A1-9C. Analysis of dimeric Ad3 fiber knob mutants with increased affinity to DSG2. FIG. 9A1-9A2) Competition of Ad3-GFP virus infection on HeLa cells with dimeric affinity-enhanced mutant Y250F and JO-1 (dimeric wt Ad3 fiber knob). The experimental setting is as described for FIG. 3C. FIG. 9A1) percentage of GFP positive cells. FIG. 9A2) mean fluorescence intensity. N=3. The standard deviation was less than 10%. […] 100 pfu/cell of Ad3GFP virus were then added and GFP expression was analyzed 18 hours later. […]
Functional validation. […] Transduction was measured based on GFP expression (FIG. 3B). […] Dimeric Ad3 knob mutants with combined mutations were also analyzed for their ability to compete with Ad3 virus for attachment (FIG. 3C) and infection (FIG. 3D).

3H-labeled Ad3 virus = experiment: Competition of 3H-labeled Ad3 virus attachment to HeLa cells; format: cell-based, adenovirus serotype 3
Description: as §1, with “The study was performed as described in FIG. 3B) The standard deviation was less than 10%. FIG. 3D) Competition of Ad3-GFP virus infection on HeLa cells. The study was performed as described in FIG. 3C) The standard deviation was less than 10%.” left out
Competition assays. […] After the last wash, the supernatant was removed and the cell-associated radioactivity was determined by a scintillation counter. The number of VP bound per cell was calculated by using the virion specific radioactivity and the number of cells.

[2] = tested on: polarized colon cancer T84 cells; details: previous studies (37, 41, 42); cited from earlier work
DSG2 [3] = target: T2, DSG2 (Homo sapiens, UniProt Q14126); details: previous studies (37, 41, 42); cited from earlier work
T2 construct: Western blot using soluble recombinant DSG2 as a probe; purchased Leinco Technologies, Inc. (St. Louis, MO)
T2 sequence (Q14126 50-609 limits assumed): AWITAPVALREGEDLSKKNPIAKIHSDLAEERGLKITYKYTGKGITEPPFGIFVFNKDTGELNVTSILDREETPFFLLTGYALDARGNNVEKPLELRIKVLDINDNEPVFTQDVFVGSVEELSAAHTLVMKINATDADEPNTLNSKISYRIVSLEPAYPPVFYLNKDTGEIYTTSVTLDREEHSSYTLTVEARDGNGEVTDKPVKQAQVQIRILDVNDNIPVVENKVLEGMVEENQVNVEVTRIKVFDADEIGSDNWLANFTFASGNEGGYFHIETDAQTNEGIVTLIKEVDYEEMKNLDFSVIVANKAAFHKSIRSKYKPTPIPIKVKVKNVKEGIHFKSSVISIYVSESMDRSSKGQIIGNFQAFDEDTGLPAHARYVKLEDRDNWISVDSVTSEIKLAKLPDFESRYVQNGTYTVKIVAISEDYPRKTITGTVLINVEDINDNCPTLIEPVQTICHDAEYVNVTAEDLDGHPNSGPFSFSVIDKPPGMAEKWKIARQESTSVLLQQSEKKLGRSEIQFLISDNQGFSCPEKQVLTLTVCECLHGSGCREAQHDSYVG

Ad3-GFP virus [4] = details: previous studies (37, 41, 42); cited from earlier work
DSG2 [5] = target: T2, DSG2; experiment: Surface plasmon resonance of Ad3 fiber knobs on immobilized DSG2; format: binding; details: knobs without dimerization domain
Description: FIG. 7A-7B. SPR analysis of non-dimerized Ad3 fiber knob interactions with DSG2. FIG. 7A) DSG2 was immobilized on sensorchips, and background was automatically subtracted from the control flow cell. The Ad3 fiber knobs (w/o dimerization domain: “noDD”) were injected for 3 minutes at 2.5 μg/ml followed by a 2.5 minutes dissociation period. FIG. 7B) Summary of SPR data. […] The extracted data are resumed in the table. Wt=Ad3 fiber knob without mutations FIG. 8A-8G. Electron microscopy and 3D structure of Ad3 fiber knob mutant JO-2.
Surface Plasmon Resonance: Acquisitions were done on a BIAcore 3000 instrument. HBS-N (GE-Healthcare, Pittsburgh, PA) supplemented with 2 mM CaCl2) was used as running buffer in all experiments at a flow rate of 5 [l/min. Immobilization on CM4 sensorchip (BIAcore) was performed using DSG2 at 10 μg/ml diluted in 10 mM Acetate buffer pH 4.5 injected for 10 minutes on ethyl(dimethylaminopropyl) carbodiimide (EDC)/N-Hydroxysuccinimide (NHS) activated flow-cell. A control flow-cell was activated by (EDC/NHS) and inactivated by ethanolamine. Different concentrations of Ad3 fiber knob proteins were injected for 3 minutes association followed by 2.5 minutes dissociation time, and the signal was automatically subtracted from the background of the ethanolamine deactivated EDC-NHS flow cell. Kinetic and affinity constants were calculated using the BIAeval software.

[6] = even at concentrations of 200 ug/ml

B1: F265L (protein)
chain: MKVSALKEKVSALKEKVSALKEKVSALKEKVSALKEGSGGGSGGGSGGGSNSIALKNNTLWTGPKPEANCIIEYGKQNPDSKLTLILVKNGGIVNGYVTLMGASDYVNTLFKNKNVSINVELYFDATGHILPDSSSLKTDLELKYKQTADFSARGFMPSTTAYPFVLPNAGTHNENYIFGQCYYKASDGALLPLEVTVMLNKRLPDSRTSYVMTFLWSLNAGLAPETTQATLITSPFTFSYIREDD
DSG2 binding in Western blot, in words (soluble recombinant DSG2): almost completely ablated
Inhibition of Ad3-GFP infection of HeLa cells, in words (Ad3-GFP virus [1]; pre-incubation with knob, GFP expression): least reduced

B2: N186D, D261N, L296R: dimeric Ad3 fiber knob with a combination of all three N186D, D261N, and L296R (protein)
chain: MKVSALKEKVSALKEKVSALKEKVSALKEKVSALKEGSGGGSGGGSGGGSNSIALKNNTLWTGPKPEANCIIEYGKQNPDSKLTLILVKNGGIVNGYVTLMGASDYVNTLFKDKNVSINVELYFDATGHILPDSSSLKTDLELKYKQTADFSARGFMPSTTAYPFVLPNAGTHNENYIFGQCYYKASNGALFPLEVTVMLNKRLPDSRTSYVMTFLWSLNAGRAPETTQATLITSPFTFSYIREDD
DSG2 binding in Western blot, in words (soluble recombinant DSG2): highest level of ablation
Block of Ad3 infection (Ad3-GFP virus [1]; [6]): did not block
Inhibition of attachment in the presence of dimeric knob (JO-1 = 100%) (3H-labeled Ad3 virus; Ad3 virus attachment to HeLa cells, N=3, averages): 18.5%
Block of Ad3 binding (attachment) (3H-labeled Ad3 virus; [6]): did not block

B3: Ad3 knob monomer: Recombinant (trimeric) fiber knob with two shaft motifs, but without the dimerization domain (protein)
chain: NKLCSKLGNGLTFDSSNSIALKNNTLWTGPKPEANCIIEYGKQNPDSKLTLILVKNGGIVNGYVTLMGASDYVNTLFKNKNVSINVELYFDATGHILPDSSSLKTDLELKYKQTADFSARGFMPSTTAYPFVLPNAGTHNENYIFGQCYYKASDGALFPLEVTVMLNKRLPDSRTSYVMTFLWSLNAGLAPETTQATLITSPFTFSYIREDD
modifications: left off: small tags and cut ends
notes: Recombinant (trimeric) fiber knob with two shaft motifs, but without the dimerization domain
Junction opening [2]: does not trigger junction opening
Affinity of binding to DSG2 relative to JO-1 (DSG2 [3]): orders of magnitude less than JO-1
Block of Ad3 infection (Ad3-GFP virus [4]): not able to block Ad3 infection

B4: N293S/noDD (protein)
chain: NKLCSKLGNGLTFDSSNSIALKNNTLWTGPKPEANCIIEYGKQNPDSKLTLILVKNGGIVNGYVTLMGASDYVNTLFKNKNVSINVELYFDATGHILPDSSSLKTDLELKYKQTADFSARGFMPSTTAYPFVLPNAGTHNENYIFGQCYYKASDGALFPLEVTVMLNKRLPDSRTSYVMTFLWSLSAGLAPETTQATLITSPFTFSYIREDD
modifications: left off: small tags and cut ends
association rate to DSG2, in words (DSG2 [5]): lowest when compared to other mutants
dissociation rate, in words (DSG2 [5]): slower dissociation rate
